According to patent US20150344570A1 (published 2015):

What was measured:
[1] = target: T1, FcgRIIIaV (human, UniProt P08637 17-208); experiment: SPR (Biacore); KD of H240-Kn033/H240-Hl033/L73-k0 divided by KD of the variant
T1 construct: extracellular domain; Polymorphic site after J. Clin. Invest; also called FcγRIIIa V; 3aV; not shown: His tag at the C terminus

[2] = target: T2, FcgRIIb (human, UniProt P31994 43-217); experiment: as above
T2 construct: extracellular domain; also called FcγRIIb; 2b; not shown: His tag at the C terminus
T2 sequence (looked up): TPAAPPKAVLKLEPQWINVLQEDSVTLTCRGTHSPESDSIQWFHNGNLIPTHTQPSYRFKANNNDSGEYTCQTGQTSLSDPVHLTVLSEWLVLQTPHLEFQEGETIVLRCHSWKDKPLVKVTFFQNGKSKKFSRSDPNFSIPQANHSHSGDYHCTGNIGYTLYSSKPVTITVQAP

[3] = target: T3, FcgRIIaH (human, UniProt P12318 34-217); experiment: as above
T3 construct: extracellular domain; also called FcγRIIa H; FcγRIIa type H; not shown: His tag at the C terminus
T3 sequence (looked up): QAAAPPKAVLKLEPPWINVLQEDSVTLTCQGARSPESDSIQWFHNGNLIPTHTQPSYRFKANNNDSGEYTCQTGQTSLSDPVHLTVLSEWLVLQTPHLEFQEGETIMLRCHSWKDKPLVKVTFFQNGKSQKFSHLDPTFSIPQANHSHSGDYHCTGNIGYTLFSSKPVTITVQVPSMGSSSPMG

[4] = target: T4, FcgRIIaR (human, UniProt P12318 34-217); experiment: as above
T4 construct: extracellular domain; also called FcγRIIa R; FcγRIIa type R; not shown: His tag at the C terminus
T4 sequence (looked up): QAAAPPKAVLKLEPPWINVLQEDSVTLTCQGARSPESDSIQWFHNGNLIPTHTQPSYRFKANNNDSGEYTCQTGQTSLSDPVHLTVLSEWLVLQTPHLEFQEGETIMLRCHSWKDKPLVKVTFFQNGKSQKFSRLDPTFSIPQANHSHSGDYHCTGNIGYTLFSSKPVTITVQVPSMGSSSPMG

[5] = target: T5, FcgRIIIaF (human, UniProt P08637 17-208); experiment: as above
T5 construct: extracellular domain; Polymorphic site after J. Clin. Invest; also called FcγRIIIa F; 3aF; not shown: His tag at the C terminus

[6] = target: T1, FcgRIIIaV; experiment: SPR (Biacore), antibody captured, FcgR extracellular domain as analyte
Description: (§1) Next, the amino acid at position 330 was examined. The A330M alteration has been introduced into H240-Hl076 of H240-Kn125/H240-Hl076/L73-k0. […] L73-k0 was used as the common antibody L chain. Binding of the produced variants to FcgRIa, FcgRIIaR, FcgRIIaH, FcgRIIb, FcgRIIIaF, and FcgRIIIaV was measured according to the method of Reference Example 8.
(§2) Analysis of interaction between objective antibody and the FcγR was carried out using Biacore T100 (GE Healthcare), Biacore T200, Biacore A100, and Biacore 4000. HBS-EP+ (GE Healthcare) was used as the running buffer, and the measurement temperature was set to 25° C. Chips produced by immobilizing the antigen peptide by the amine coupling method to a Series S sensor Chip CM5 (GE Healthcare), chips produced by allowing preliminarily biotinylated antigen peptides to interact with and immobilize onto a Series S Sensor Chip SA (certified) (GE Healthcare), chips produced by immobilizing Protein L (ACTIGEN, BioVision) to Series S Sencor Chip CM5 (GE Healthcare), or chips produced by immobilizing Protein A/G (Thermo Scientific) to Series S Sencor Chip CM5 (GE Healthcare) were used. Antibodies of interest were captured onto these chips, and allowed to interact to each FcγR diluted with running buffer. To regenerate and repeatedly use the chip, the antibodies captured onto the chip were washed off by reacting 10 mM glycine-HCl, pH 1.5.

[7] = target: T2, FcgRIIb; experiment: as above
Description: as §1, §2

[8] = target: T3, FcgRIIaH; experiment: as above
Description: as §1, §2

[9] = target: T6, FcgRIa (human, UniProt P12314 16-292); experiment: as above
T6 construct: extracellular domain; also called FcγRIa; FcγRI; not shown: His tag at the C terminus
Description: as §1, §2

[10] = target: T4, FcgRIIaR; experiment: as above
Description: as §1, §2

[11] = target: T5, FcgRIIIaF; experiment: as above
Description: as §1, §2

T5 sequence (P08637 17-208): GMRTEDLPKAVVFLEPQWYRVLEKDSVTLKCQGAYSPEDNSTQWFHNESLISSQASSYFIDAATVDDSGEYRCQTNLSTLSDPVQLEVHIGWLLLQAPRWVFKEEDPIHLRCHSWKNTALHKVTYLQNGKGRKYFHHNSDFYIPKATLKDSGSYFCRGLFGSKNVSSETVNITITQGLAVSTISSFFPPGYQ
T6 sequence (P12314 16-292): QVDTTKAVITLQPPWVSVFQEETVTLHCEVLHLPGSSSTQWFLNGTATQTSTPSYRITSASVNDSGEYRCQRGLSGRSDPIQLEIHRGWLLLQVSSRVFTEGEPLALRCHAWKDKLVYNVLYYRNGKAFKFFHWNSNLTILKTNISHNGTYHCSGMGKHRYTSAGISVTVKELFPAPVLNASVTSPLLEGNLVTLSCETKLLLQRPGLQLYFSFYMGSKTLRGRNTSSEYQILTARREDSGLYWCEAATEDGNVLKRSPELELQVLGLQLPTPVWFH
T1 sequence (P08637 17-208 F176V limits assumed): as the sequence (P08637 17-208) above, with F160V counted along it

B1: H240-Kn125/H240-Hl216/L73-k0 (antibody, human IgG1, kappa)
heavy 1: QDQLVQSGAEVKKPGASVKVSCKASGFNIKDTYIQWVRQAPGQGLEWMGRIDPLRKQTKYREKFEGRVTITADTSTNTAYMELSSLRSEDTAVYYCVRSGREFDYWGQGTLVTVSSASTKGPSVFPLAPSSKSTSGGTAALGCLVKDYFPEPVTVSWNSGALTSGVHTFPAVLQSSGLYSLSSVVTVPSSSLGTQTYICNVNHKPSNTKVDKKVEPKSCDKTHTCPPCPAPEYQWGPMVFLFPPKPKDTLMISRTPEVTCVVVDVSDEEPEVKFNWYVDGVEVHNAKTKPREEQYNATYRVVSVLTVLHQDWLNGKEYKCKVSNKALPAPIEKTISKAKGQPREPQVCTLPPSRDELTKNQVSLWCLVKGFYPSDIAVEWESNGQPENNYKTTPPVLDSDGSFFLYSKLTVDKSRWQQGNVFSCSVMHEALHNHYTQKSLSLSP
heavy 2: QDQLVQSGAEVKKPGASVKVSCKASGFNIKDTYIQWVRQAPGQGLEWMGRIDPLRKQTKYREKFEGRVTITADTSTNTAYMELSSLRSEDTAVYYCVRSGREFDYWGQGTLVTVSSASTKGPSVFPLAPSSKSTSGGTAALGCLVKDYFPEPVTVSWNSGALTSGVHTFPAVLQSSGLYSLSSVVTVPSSSLGTQTYICNVNHKPSNTKVDKKVEPKSCDKTHTCPPCPAPELLGGPSVFLFPPKPKDTLMISRTPEVTCVVVDVSHEEPEVKFNWYVDGVEVHNAKTKPREEQYNSTYRVVSVLTVLHQDWLNGKEYKCKVSNDALPIPIEETISKAKGQPREPQVYTLPPSRCELTKNQVSLSCAVKGFYPSDIAVEWESNGQPENNYKTTPPVLDSDGSFFLVSKLTVDKSRWQQGNVFSCSVMHEALHNHYTQKSLSLSP
light: DIQMTQSPSSLSASVGDRVTITCRASQDIHKYIAWYQQKPGQAPRLLIQYTSTLQPGVPSRFSGSGSGTDYTFTISSLQPEDIATYYCLQYEQLRTFGGGTKVEIKRTVAAPSVFIFPPSDEQLKSGTASVVCLLNNFYPREAKVQWKVDNALQSGNSQESVTEQDSKDSTYSLSSTLTLSKADYEKHKVYACEVTHQGLSSPVTKSFNRGEC
**Q.** For B1, which “fold 3aV” value [1] is on record?
**A.** Its value is 80 fold.

**Q.** And the “fold 2b” value [2]?
**A.** Its value is 0.4 fold.

**Q.** And the “fold 2aH” value [3]?
**A.** Its value is 2.5 fold.

**Q.** And the “fold 2aR” value [4]?
**A.** The value was 1 fold.

**Q.** What about the “fold 3aF” value [5] of the same binder?
**A.** The value was 107 fold.

**Q.** What about the Kd [6] of the same binder?
**A.** Its Kd is 0.6 nM.

**Q.** And the Kd [7]?
**A.** The Kd was 8300 nM.

**Q.** What about the Kd [8] of the same binder?
**A.** The Kd was 210 nM.

**Q.** And the Kd [9]?
**A.** The Kd was 0.073 nM.

**Q.** And the Kd [10]?
**A.** Its Kd is 770 nM.

**Q.** What about the Kd [11] of the same binder?
**A.** The Kd was 2.7 nM.

B2: H240-Kn125/H240-Hl217/L73-k0 (antibody, human IgG1, kappa)
heavy 1: QDQLVQSGAEVKKPGASVKVSCKASGFNIKDTYIQWVRQAPGQGLEWMGRIDPLRKQTKYREKFEGRVTITADTSTNTAYMELSSLRSEDTAVYYCVRSGREFDYWGQGTLVTVSSASTKGPSVFPLAPSSKSTSGGTAALGCLVKDYFPEPVTVSWNSGALTSGVHTFPAVLQSSGLYSLSSVVTVPSSSLGTQTYICNVNHKPSNTKVDKKVEPKSCDKTHTCPPCPAPEYQWGPMVFLFPPKPKDTLMISRTPEVTCVVVDVSDEEPEVKFNWYVDGVEVHNAKTKPREEQYNATYRVVSVLTVLHQDWLNGKEYKCKVSNKALPAPIEKTISKAKGQPREPQVCTLPPSRDELTKNQVSLWCLVKGFYPSDIAVEWESNGQPENNYKTTPPVLDSDGSFFLYSKLTVDKSRWQQGNVFSCSVMHEALHNHYTQKSLSLSP
heavy 2: QDQLVQSGAEVKKPGASVKVSCKASGFNIKDTYIQWVRQAPGQGLEWMGRIDPLRKQTKYREKFEGRVTITADTSTNTAYMELSSLRSEDTAVYYCVRSGREFDYWGQGTLVTVSSASTKGPSVFPLAPSSKSTSGGTAALGCLVKDYFPEPVTVSWNSGALTSGVHTFPAVLQSSGLYSLSSVVTVPSSSLGTQTYICNVNHKPSNTKVDKKVEPKSCDKTHTCPPCPAPELLGGPSVFLFPPKPKDTLMISRTPEVTCVVVDVSHEEPEVKFNWYVDGVEVHNAKTKPREEQYNSTYRVVSVLTVLHQDWLNGKEYKCKVSNDALPYPIEETISKAKGQPREPQVYTLPPSRCELTKNQVSLSCAVKGFYPSDIAVEWESNGQPENNYKTTPPVLDSDGSFFLVSKLTVDKSRWQQGNVFSCSVMHEALHNHYTQKSLSLSP
light: DIQMTQSPSSLSASVGDRVTITCRASQDIHKYIAWYQQKPGQAPRLLIQYTSTLQPGVPSRFSGSGSGTDYTFTISSLQPEDIATYYCLQYEQLRTFGGGTKVEIKRTVAAPSVFIFPPSDEQLKSGTASVVCLLNNFYPREAKVQWKVDNALQSGNSQESVTEQDSKDSTYSLSSTLTLSKADYEKHKVYACEVTHQGLSSPVTKSFNRGEC
**Q.** Which results are given for B2?
**A.** fold 3aV [1]: 146 fold; fold 2b [2]: 0.9 fold; fold 2aH [3]: 4 fold; fold 2aR [4]: 1.7 fold; fold 3aF [5]: 121 fold; Kd [6]: 0.33 nM; Kd [7]: 3500 nM; Kd [8]: 130 nM; Kd [9]: 0.076 nM; Kd [10]: 440 nM; Kd [11]: 2.4 nM

B3: H240-Kn125/H240-Hl218/L73-k0 (antibody, human IgG1, kappa)
heavy 1: QDQLVQSGAEVKKPGASVKVSCKASGFNIKDTYIQWVRQAPGQGLEWMGRIDPLRKQTKYREKFEGRVTITADTSTNTAYMELSSLRSEDTAVYYCVRSGREFDYWGQGTLVTVSSASTKGPSVFPLAPSSKSTSGGTAALGCLVKDYFPEPVTVSWNSGALTSGVHTFPAVLQSSGLYSLSSVVTVPSSSLGTQTYICNVNHKPSNTKVDKKVEPKSCDKTHTCPPCPAPEYQWGPMVFLFPPKPKDTLMISRTPEVTCVVVDVSDEEPEVKFNWYVDGVEVHNAKTKPREEQYNATYRVVSVLTVLHQDWLNGKEYKCKVSNKALPAPIEKTISKAKGQPREPQVCTLPPSRDELTKNQVSLWCLVKGFYPSDIAVEWESNGQPENNYKTTPPVLDSDGSFFLYSKLTVDKSRWQQGNVFSCSVMHEALHNHYTQKSLSLSP
heavy 2: QDQLVQSGAEVKKPGASVKVSCKASGFNIKDTYIQWVRQAPGQGLEWMGRIDPLRKQTKYREKFEGRVTITADTSTNTAYMELSSLRSEDTAVYYCVRSGREFDYWGQGTLVTVSSASTKGPSVFPLAPSSKSTSGGTAALGCLVKDYFPEPVTVSWNSGALTSGVHTFPAVLQSSGLYSLSSVVTVPSSSLGTQTYICNVNHKPSNTKVDKKVEPKSCDKTHTCPPCPAPELLGGPSVFLFPPKPKDTLMISRTPEVTCVVVDVSHEEPEVKFNWYVDGVEVHNAKTKPREEQYNSTYRVVSVLTVLHQDWLNGKEYKCKVSNDALPHPIEETISKAKGQPREPQVYTLPPSRCELTKNQVSLSCAVKGFYPSDIAVEWESNGQPENNYKTTPPVLDSDGSFFLVSKLTVDKSRWQQGNVFSCSVMHEALHNHYTQKSLSLSP
light: DIQMTQSPSSLSASVGDRVTITCRASQDIHKYIAWYQQKPGQAPRLLIQYTSTLQPGVPSRFSGSGSGTDYTFTISSLQPEDIATYYCLQYEQLRTFGGGTKVEIKRTVAAPSVFIFPPSDEQLKSGTASVVCLLNNFYPREAKVQWKVDNALQSGNSQESVTEQDSKDSTYSLSSTLTLSKADYEKHKVYACEVTHQGLSSPVTKSFNRGEC
**Q.** Which results are given for B3?
**A.** fold 3aV [1]: 70.6 fold; fold 2b [2]: 1.1 fold; fold 2aH [3]: 4.7 fold; fold 2aR [4]: 2.4 fold; fold 3aF [5]: 112 fold; Kd [6]: 0.68 nM; Kd [7]: 2900 nM; Kd [8]: 110 nM; Kd [9]: 0.092 nM; Kd [10]: 310 nM; Kd [11]: 2.6 nM
